Data set [1] concerns HeLa Kyoto. The data set is described as follows: solubility in G1/S (NP-40 vs SDS abundance) (log2 ratio); higher = more soluble. As to conditions: cell cycle stage: G1/S.
The subject of data set [2] is HeLa Kyoto. The data set can be described thus: melting temperature (median over replicates), in situ; higher = more thermally stable.
Data set [3] concerns HeLa Kyoto. The data set can be described thus: solubility change mitosis vs G1/S (difference of NP-40 vs SDS log2 ratios) (log2 ratio difference); higher = more soluble in mitosis.
Data set [4] concerns HeLa Kyoto. The data set is described as follows: thermal stability score vs G1/S (z-score of summed log2 fold changes over temperatures); higher = more thermally stable than in G1/S.
Where [5] appears, read: cell cycle stage: early G1 (4.5 h after nocodazole release).

This is an account of results in the supplement of paper PMC5998384.
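For melting temperature (median over replicates), in situ in this document: HeLa Kyoto cells synchronized by double thymidine or nocodazole block, proteins quantified by TMT10plex mass spectrometry, three independent biological replicates.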
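For solubility change mitosis vs G1/S (difference of NP-40 vs SDS log2 ratios) in this document: synchronized HeLa Kyoto cells (double thymidine block for G1/S, nocodazole release for mitosis), protein amounts in NP-40 versus SDS lysates quantified by mass spectrometry, three biological replicates.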
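For solubility in G1/S (NP-40 vs SDS abundance) in this document: HeLa Kyoto cells arrested at G1/S by double thymidine block, proteins quantified by TMT10plex mass spectrometry in mild NP-40 versus SDS extracts, three biological replicates.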
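For thermal stability score vs G1/S (z-score of summed log2 fold changes over temperatures) in this document: synchronized HeLa Kyoto cells, proteins quantified by TMT10plex mass spectrometry, three biological replicates, mitosis taken 0.5 h after nocodazole release, G1/S directly after double thymidine block.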

Chain of CDC42 (chain, as listed by the source): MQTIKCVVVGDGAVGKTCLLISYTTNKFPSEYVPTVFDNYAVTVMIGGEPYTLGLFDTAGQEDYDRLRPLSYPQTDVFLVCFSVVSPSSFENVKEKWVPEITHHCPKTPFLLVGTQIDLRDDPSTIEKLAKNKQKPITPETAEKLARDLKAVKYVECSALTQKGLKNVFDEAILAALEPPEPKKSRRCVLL

Regarding CDC42, the “solubility in G1/S (log2)” value in data set [1] was found to be 0.629. In addition, the melting temperature in data set [2] (cell cycle stage: G1/S) was 60.1 °C; in data set [2] (cell cycle stage: mitosis), 59.8 °C. In data set [3], the “solubility change mitosis (log2)” value was -0.0727. In addition, the thermal stability score was -1.73 in data set [4] (setting [5]) and 1.82 in data set [4] (cell cycle stage: mitosis).

Turning to “MVHFCGLLTLHREPVPLKSISVSVNIYEFVAGVSATLNYENEEKVPLEAFFVFPMDEDSAVYSFEALVDGKKIVAELQDKMKARTNYEKAISQGHQAFLLEGDSSSRDVFSCNVGNLQPGSKAAVTLKYVQELPLEADGALRFVLPAVLNPRYQFSGSSKDSCLNVKTPIVPVEDLPYTLSMVATIDSQHGIEKVQSNCPLSPTEYLGEDKTSAQVSLAAGHKFDRDVELLIYYNEVHTPSVVLEMGMPNMKPGHLMGDPSAMVSFYPNIPEDQPSNTCGEFIFLMDRSGSMQSPMSSQDTSQLRIQAAKETLILLLKSLPIGCYFNIYGFGSSYEACFPESVKYTQQTMEEALGRVKLMQADLGGTEILAPLQNIYRGPSIPGHPLQLFVFTDGEVTDTFSVIKEVRINRQKHRCFSFGIGEGTSTSLIKGIARASGGTSEFITGKDRMQSKALRTLKRSLQPVVEDVSLSWHLPPGLSAKMLSPEQTVIFRGQRLISYAQLTGRMPAAETTGEVCLKYTLQGKTFEDKVTFPLQPKPDVNLTIHRLAAKSLLQTKDMGLRETPASDKKDALNLSLESGVISSFTAFIAINKELNKPVQGPLAHRDVPRPILLGASAPLKIKCQSGFRKALHSDRPPSASQPRGELMCYKAKTFQMDDYSLCGLISHKDQHSPGFGENHLVQLIYHQNANGSWDLNEDLAKILGMSLEEIMAAQPAELVDSSGWATILAVIWLHSNGKDLKCEWELLERKAVAWMRAHAGSTMPSVVKAAITFLKSSVDPAIFAF [VWA5A]”, the “solubility in G1/S (log2)” value in data set [1] was determined as 0.137. The melting temperature is 52.3 °C in data set [2] (cell cycle stage: G1/S) and 52.2 °C in data set [2] (cell cycle stage: mitosis). The “solubility change mitosis (log2)” value in data set [3] was -0.132. Moreover, the thermal stability score in data set [4] (setting [5]) is -0.428; in data set [4] (cell cycle stage: mitosis) it was -0.133.

Turning to “MASMAAAIAASRSAVMSGNRPLDDRERKRFTYFSSLSPMARKIMQDKEKIREKYGPEWARLPPAQQDEIIDRCLVGPRAPAPRDPGDSEELTRFPGLRGPTGQKVVRFGDEDLTWQDEHSAPFSWETKSQMEFSISALSIQEPSNGTAASEPRPLSKASQGSQALKSSQGSRSSSLDALGPTRKEEEASFWKINAERSRGEGPEAEFQSLTPSQIKSMEKGEKVLPPCYRQEPAPKDREAKVERPSTLRQEQRPLPNVSTERERPQPVQAFSSALHEAAPSQLEGKLPSPDVRQDDGEDTLFSEPKFAQVSSSNVVLKTGFDFLDNW [C1ORF198]”, the “solubility in G1/S (log2)” value in data set [1] was -0.228. Further, the melting temperature in data set [2] (cell cycle stage: G1/S) is 51.6 °C; in data set [2] (cell cycle stage: mitosis), 53.2 °C. Moreover, the “solubility change mitosis (log2)” value in data set [3] was found to be 0.253. For the same substance, the results for the thermal stability score in data set [4] (setting [5]) and in data set [4] (cell cycle stage: mitosis) were -0.542 and -1, respectively.

Take “MAAMETETAPLTLESLPTDPLLLILSFLDYRDLINCCYVSRRLSQLSSHDPLWRRHCKKYWLISEEEKTQKNQCWKSLFIDTYSDVGRYIDHYAAIKKAWDDLKKYLEPRCPRMVLSLKEGAREEDLDAVEAQIGCKLPDDYRCSYRIHNGQKLVVPGLLGSMALSNHYRSEDLLDVDTAAGGFQQRQGLKYCLPLTFCIHTGLSQYIAVEAAEGRNKNEVFYQCPDQMARNPAAIDMFIIGATFTDWFTSYVKNVVSGGFPIIRDQIFRYVHDPECVATTGDITVSVSTSFLPELSSVHPPHYFFTYRIRIEMSKDALPEKACQLDSRYWRITNAKGDVEEVQGPGVVGEFPIISPGRVYEYTSCTTFSTTSGYMEGYYTFHFLYFKDKIFNVAIPRFHMACPTFRVSIARLEMGPDEYEEMEEEEEEEEEEDEDDDSADMDESDEDDEEERRRRVFDVPIRRRRCSRLF [FBXO3]”: in data set [1], the “solubility in G1/S (log2)” value is -0.00208. For the same substance, the values for the melting temperature in data set [2] (cell cycle stage: G1/S) and in data set [2] (cell cycle stage: mitosis) were 53.9 °C and 53.3 °C, respectively. Further, in data set [3], the “solubility change mitosis (log2)” value was -0.0407. Further, the thermal stability score came to 0.236 in data set [4] (setting [5]) and 0.497 in data set [4] (cell cycle stage: mitosis).

Turning to “MTPPPPPPPPPGPDPAADPAADPCPWPGSLVVLFGATAGALGRDLGSDETDLILLVWQVVEPRSRQVGTLHKSLVRAEAAALSTQCREASGLSADSLARAEPLDKVLQQFSQLVNGDVALLGGGPYMLCTDGQQLLRQVLHPEASRKNLVLPDMFFSFYDLRREFHMQHPSTCPARDLTVATMAQGLGLETDATEDDFGVWEVKTMVAVILHLLKEPSSQLFSKPEVIKQKYETGPCSDSTVPCPYSSKADVVDSETVVRARGLPWQSSDQDVARFFKGLNVARGGVALCLNAQGRRNGEALIRFVDSEQRDLALQRHKHHMGVRYIEVYKATGEEFVKIAGGTSLEVARFLSREDQVILRLRGLPFSAGPTDVLGFLGPECPVTGGTEGLLFVRHPDGRPTGDAFALFACEELAQAALRRHKGMLGKRYIELFRSTAAEVQQVLNRYASGPLLPTLTAPLLPIPFPLAPGTGRDCVRLRGLPYTATIEDILSFLGEAAADIRPHGVHMVLNQQGRPSGDAFIQMTSAERALAAAQRCHKKVMKERYVEVVPCSTEEMSRVLMGGTLGRSGMSPPPCKLPCLSPPTYTTFQATPTLIPTETAALYPSSALLPAARVPAAPTPVAYYPGPATQLYLNYTAYYPSPPVSPTTVGYLTTPTAALASAPTSVLSQSGALVRMQGVPYTAGMKDLLSVFQAYQLPADDYTSLMPVGDPPRTVLQAPKEWVCL [ESRP2]”, the “solubility in G1/S (log2)” value in data set [1] stood at 0.0652. For the same substance, the melting temperature is 45.2 °C in data set [2] (cell cycle stage: G1/S) and 47.7 °C in data set [2] (cell cycle stage: mitosis). Besides, in data set [3], the “solubility change mitosis (log2)” value turned out to be 0.0705. Also, the results for the thermal stability score in data set [4] (setting [5]) and in data set [4] (cell cycle stage: mitosis) were 1.55 and 2.39, respectively.
